Source: patent publication US20260217779A1

Key:
Assay in all cases: cell-based or functional assay
[1] = target: hCXCL10R75A.0005-G1T4k.one//VHn-G1T4h.one.H435R (human) [IgG part: P01857]
[2] = target: hCXCL10R75A.0027-G1T4k.one//VHn-G1T4h.one.H435R (human) [IgG part: P01857]
[3] = target: hCXCL10R75A.0023-G1T4k.one//VHn-G1T4h.one.H435R (human) [IgG part: P01857]
[4] = target: hCXCL10R75A.0004-G1T4k.one//VHn-G1T4h.one.H435R (human) [IgG part: P01857]
[5] = target: hCXCL10R75A.0031-G1T4k.one//VHn-G1T4h.one.H435R (human) [IgG part: P01857]
[6] = target: hCXCL10R75A.0009-G1T4k.one//VHn-G1T4h.one.H435R (human) [IgG part: P01857]
[7] = target: hCXCL10R75A.0042-G1T4k.one//VHn-G1T4h.one.H435R (human) [IgG part: P01857]
[8] = target: hCXCL10R75A-G1T4k.one//VHn-G1T4h.one.H435R (human) [IgG part: P01857]
[9] = target: hCXCL10R75A.0049-G1T4k.one//VHn-G1T4h.one.H435R (human) [IgG part: P01857]
[10] = target: hCXCL10R75A.0033-G1T4k.one//VHn-G1T4h.one.H435R (human) [IgG part: P01857]
[11] = target: hCXCL10R75A.0036-G1T4k.one//VHn-G1T4h.one.H435R (human) [IgG part: P01857]
[12] = target: hCXCL10R75A.0016-G1T4k.one//VHn-G1T4h.one.H435R (human) [IgG part: P01857]
[13] = target: hCXCL10R75A.0047-G1T4k.one//VHn-G1T4h.one.H435R (human) [IgG part: P01857]
[14] = target: hCXCL10R75A.0054-G1T4k.one//VHn-G1T4h.one.H435R (human) [IgG part: P01857]
[15] = target: hCXCL10R75A.0017-G1T4k.one//VHn-G1T4h.one.H435R (human) [IgG part: P01857]
[16] = target: hCXCL10R75A.0038-G1T4k.one//VHn-G1T4h.one.H435R (human) [IgG part: P01857]
[17] = target: hCXCL10R75A.0034-G1T4k.one//VHn-G1T4h.one.H435R (human) [IgG part: P01857]
[18] = target: hCXCL10R75A.0010-G1T4k.one//VHn-G1T4h.one.H435R (human) [IgG part: P01857]
[19] = target: hCXCL10R75A.0015-G1T4k.one//VHn-G1T4h.one.H435R (human) [IgG part: P01857]
[20] = target: hCXCL10R75A.0025-G1T4k.one//VHn-G1T4h.one.H435R (human) [IgG part: P01857]
[21] = target: hCXCL10R75A.0019-G1T4k.one//VHn-G1T4h.one.H435R (human) [IgG part: P01857]
[22] = target: hCXCL10R75A.0001-G1T4k.one//VHn-G1T4h.one.H435R (human) [IgG part: P01857]
[23] = target: hCXCL10R75A.0018-G1T4k.one//VHn-G1T4h.one.H435R (human) [IgG part: P01857]
[24] = target: hCXCL10R75A.0041-G1T4k.one//VHn-G1T4h.one.H435R (human) [IgG part: P01857]
[25] = target: hCXCL10R75A.0044-G1T4k.one//VHn-G1T4h.one.H435R (human) [IgG part: P01857]
[26] = target: hCXCL10R75A.0053-G1T4k.one//VHn-G1T4h.one.H435R (human) [IgG part: P01857]
[27] = target: hCXCL10R75A.0029-G1T4k.one//VHn-G1T4h.one.H435R (human) [IgG part: P01857]
[28] = target: hCXCL10R75A.0007-G1T4k.one//VHn-G1T4h.one.H435R (human) [IgG part: P01857]

human dipeptidyl peptidase IV (human DPPIV, hDPPIV) (Biolegend, 764102), sequence (P27487 29-766 limits assumed): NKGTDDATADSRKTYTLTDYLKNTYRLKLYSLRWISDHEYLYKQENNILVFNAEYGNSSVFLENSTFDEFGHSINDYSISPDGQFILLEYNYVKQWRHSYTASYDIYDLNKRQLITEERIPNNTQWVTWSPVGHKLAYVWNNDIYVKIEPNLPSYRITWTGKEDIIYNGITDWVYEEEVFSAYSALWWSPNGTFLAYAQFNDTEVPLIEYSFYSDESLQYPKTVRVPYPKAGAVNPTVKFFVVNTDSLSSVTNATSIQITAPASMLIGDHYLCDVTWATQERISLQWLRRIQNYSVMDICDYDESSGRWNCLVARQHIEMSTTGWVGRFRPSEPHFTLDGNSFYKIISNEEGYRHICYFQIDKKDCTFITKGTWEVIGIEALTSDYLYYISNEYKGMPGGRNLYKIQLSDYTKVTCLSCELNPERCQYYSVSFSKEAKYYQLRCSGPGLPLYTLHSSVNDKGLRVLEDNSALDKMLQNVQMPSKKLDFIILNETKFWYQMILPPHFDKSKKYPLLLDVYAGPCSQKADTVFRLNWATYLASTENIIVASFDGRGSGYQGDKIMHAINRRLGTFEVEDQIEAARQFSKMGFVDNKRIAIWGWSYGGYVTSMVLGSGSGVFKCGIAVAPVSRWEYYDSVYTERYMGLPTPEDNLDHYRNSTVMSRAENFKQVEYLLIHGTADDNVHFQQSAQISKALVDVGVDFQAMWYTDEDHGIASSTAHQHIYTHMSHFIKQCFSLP
hCXCL10R75A.0005-G1T4k.one//VHn-G1T4h.one.H435R (human) [IgG part: P01857], sequence (P01857 other isoform, or with tags, fused parts or gaps H435R H435R, chain 1 of 2): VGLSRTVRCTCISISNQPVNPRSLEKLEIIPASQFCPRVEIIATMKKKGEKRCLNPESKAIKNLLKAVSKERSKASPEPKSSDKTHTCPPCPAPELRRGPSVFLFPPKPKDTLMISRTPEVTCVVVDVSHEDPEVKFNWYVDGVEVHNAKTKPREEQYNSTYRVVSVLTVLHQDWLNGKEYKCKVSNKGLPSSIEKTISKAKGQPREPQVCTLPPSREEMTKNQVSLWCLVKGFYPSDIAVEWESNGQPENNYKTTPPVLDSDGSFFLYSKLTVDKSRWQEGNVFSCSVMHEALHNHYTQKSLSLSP
hCXCL10R75A.0005-G1T4k.one//VHn-G1T4h.one.H435R (human) [IgG part: P01857], sequence (P01857 other isoform, or with tags, fused parts or gaps H435R H435R, chain 2 of 2): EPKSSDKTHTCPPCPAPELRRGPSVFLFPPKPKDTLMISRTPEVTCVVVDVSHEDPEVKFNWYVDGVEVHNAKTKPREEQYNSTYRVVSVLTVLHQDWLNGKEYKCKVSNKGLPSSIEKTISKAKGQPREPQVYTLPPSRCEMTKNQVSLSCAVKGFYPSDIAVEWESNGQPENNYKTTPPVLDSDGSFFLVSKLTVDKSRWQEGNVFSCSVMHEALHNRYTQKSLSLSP
hCXCL10R75A.0018-G1T4k.one//VHn-G1T4h.one.H435R (human) [IgG part: P01857], sequence (P01857 other isoform, or with tags, fused parts or gaps H435R H435R, chain 1 of 2): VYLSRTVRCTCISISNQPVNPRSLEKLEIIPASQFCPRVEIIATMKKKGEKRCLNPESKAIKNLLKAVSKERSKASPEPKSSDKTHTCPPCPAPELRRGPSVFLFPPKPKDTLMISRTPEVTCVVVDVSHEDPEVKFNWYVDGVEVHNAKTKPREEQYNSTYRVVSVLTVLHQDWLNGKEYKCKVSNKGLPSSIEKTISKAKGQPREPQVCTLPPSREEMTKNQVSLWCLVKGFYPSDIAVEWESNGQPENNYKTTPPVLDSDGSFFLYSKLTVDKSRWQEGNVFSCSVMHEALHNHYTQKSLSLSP
hCXCL10R75A.0018-G1T4k.one//VHn-G1T4h.one.H435R (human) [IgG part: P01857], sequence (P01857 other isoform, or with tags, fused parts or gaps H435R H435R, chain 2 of 2): as the sequence (P01857 other isoform, or with tags, fused parts or gaps H435R H435R, chain 2 of 2) above
hCXCL10R75A.0044-G1T4k.one//VHn-G1T4h.one.H435R (human) [IgG part: P01857], sequence (P01857 other isoform, or with tags, fused parts or gaps H435R H435R, chain 1 of 2): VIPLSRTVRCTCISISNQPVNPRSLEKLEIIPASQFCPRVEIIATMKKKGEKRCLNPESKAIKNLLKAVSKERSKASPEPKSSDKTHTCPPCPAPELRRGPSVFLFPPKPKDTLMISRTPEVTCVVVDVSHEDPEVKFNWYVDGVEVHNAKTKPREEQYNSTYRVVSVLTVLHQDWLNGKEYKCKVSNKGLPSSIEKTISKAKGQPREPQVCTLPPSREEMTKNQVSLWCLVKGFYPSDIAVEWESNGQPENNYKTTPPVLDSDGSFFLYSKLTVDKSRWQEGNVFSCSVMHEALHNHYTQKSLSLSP
hCXCL10R75A.0044-G1T4k.one//VHn-G1T4h.one.H435R (human) [IgG part: P01857], sequence (P01857 other isoform, or with tags, fused parts or gaps H435R H435R, chain 2 of 2): as the sequence (P01857 other isoform, or with tags, fused parts or gaps H435R H435R, chain 2 of 2) above
hCXCL10R75A.0010-G1T4k.one//VHn-G1T4h.one.H435R (human) [IgG part: P01857], sequence (P01857 other isoform, or with tags, fused parts or gaps H435R H435R, chain 1 of 2): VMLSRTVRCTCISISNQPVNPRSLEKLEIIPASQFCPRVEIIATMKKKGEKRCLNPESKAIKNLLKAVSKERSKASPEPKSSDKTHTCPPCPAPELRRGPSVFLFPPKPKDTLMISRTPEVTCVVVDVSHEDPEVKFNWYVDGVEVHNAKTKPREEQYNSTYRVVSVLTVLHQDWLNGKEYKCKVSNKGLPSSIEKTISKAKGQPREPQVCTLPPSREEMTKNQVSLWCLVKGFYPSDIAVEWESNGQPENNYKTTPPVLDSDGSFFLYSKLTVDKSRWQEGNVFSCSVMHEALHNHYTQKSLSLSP
hCXCL10R75A.0010-G1T4k.one//VHn-G1T4h.one.H435R (human) [IgG part: P01857], sequence (P01857 other isoform, or with tags, fused parts or gaps H435R H435R, chain 2 of 2): as the sequence (P01857 other isoform, or with tags, fused parts or gaps H435R H435R, chain 2 of 2) above
hCXCL10R75A.0015-G1T4k.one//VHn-G1T4h.one.H435R (human) [IgG part: P01857], sequence (P01857 other isoform, or with tags, fused parts or gaps H435R H435R, chain 1 of 2): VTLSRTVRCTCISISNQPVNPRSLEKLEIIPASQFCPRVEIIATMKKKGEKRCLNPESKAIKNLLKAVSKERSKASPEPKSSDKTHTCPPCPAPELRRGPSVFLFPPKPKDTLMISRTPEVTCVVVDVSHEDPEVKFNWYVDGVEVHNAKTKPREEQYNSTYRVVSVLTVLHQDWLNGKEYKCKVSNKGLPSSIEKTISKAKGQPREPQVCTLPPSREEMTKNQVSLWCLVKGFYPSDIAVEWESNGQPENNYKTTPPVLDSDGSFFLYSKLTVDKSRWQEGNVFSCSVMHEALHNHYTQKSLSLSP
hCXCL10R75A.0015-G1T4k.one//VHn-G1T4h.one.H435R (human) [IgG part: P01857], sequence (P01857 other isoform, or with tags, fused parts or gaps H435R H435R, chain 2 of 2): as the sequence (P01857 other isoform, or with tags, fused parts or gaps H435R H435R, chain 2 of 2) above
hCXCL10R75A.0041-G1T4k.one//VHn-G1T4h.one.H435R (human) [IgG part: P01857], sequence (P01857 other isoform, or with tags, fused parts or gaps H435R H435R, chain 1 of 2): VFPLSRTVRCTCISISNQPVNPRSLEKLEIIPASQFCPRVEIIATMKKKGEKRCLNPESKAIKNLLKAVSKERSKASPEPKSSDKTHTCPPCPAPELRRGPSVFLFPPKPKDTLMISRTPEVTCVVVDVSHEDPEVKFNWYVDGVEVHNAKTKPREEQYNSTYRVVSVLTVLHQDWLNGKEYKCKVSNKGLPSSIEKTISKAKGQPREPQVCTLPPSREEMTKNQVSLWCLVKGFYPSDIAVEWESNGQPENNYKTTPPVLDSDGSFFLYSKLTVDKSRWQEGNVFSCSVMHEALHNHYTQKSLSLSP
hCXCL10R75A.0041-G1T4k.one//VHn-G1T4h.one.H435R (human) [IgG part: P01857], sequence (P01857 other isoform, or with tags, fused parts or gaps H435R H435R, chain 2 of 2): as the sequence (P01857 other isoform, or with tags, fused parts or gaps H435R H435R, chain 2 of 2) above
hCXCL10R75A.0038-G1T4k.one//VHn-G1T4h.one.H435R (human) [IgG part: P01857], sequence (P01857 other isoform, or with tags, fused parts or gaps H435R H435R, chain 1 of 2): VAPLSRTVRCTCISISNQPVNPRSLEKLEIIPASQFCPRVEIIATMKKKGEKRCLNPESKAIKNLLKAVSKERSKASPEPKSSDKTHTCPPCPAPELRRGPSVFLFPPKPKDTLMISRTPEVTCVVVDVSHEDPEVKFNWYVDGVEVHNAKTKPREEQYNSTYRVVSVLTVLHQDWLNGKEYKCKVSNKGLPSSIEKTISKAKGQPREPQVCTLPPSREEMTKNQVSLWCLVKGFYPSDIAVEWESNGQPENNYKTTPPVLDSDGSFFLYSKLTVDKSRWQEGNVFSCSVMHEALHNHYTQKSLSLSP
hCXCL10R75A.0038-G1T4k.one//VHn-G1T4h.one.H435R (human) [IgG part: P01857], sequence (P01857 other isoform, or with tags, fused parts or gaps H435R H435R, chain 2 of 2): as the sequence (P01857 other isoform, or with tags, fused parts or gaps H435R H435R, chain 2 of 2) above

human dipeptidyl peptidase IV (human DPPIV, hDPPIV) (Biolegend, 764102) (from UniProt P27487 29-766) (enzyme)
mass change after hDPPIV treatment (LC/MS) [1]: -1 Da | mass change after hDPPIV treatment (LC/MS) [2]: 1 Da | mass change after hDPPIV treatment (LC/MS) [3]: 1 Da | mass change after hDPPIV treatment (LC/MS) [4]: 1 Da | mass change after hDPPIV treatment (LC/MS) [5]: 0 Da | mass change after hDPPIV treatment (LC/MS) [6]: 1 Da | mass change after hDPPIV treatment (LC/MS) [7]: 1 Da | mass change after hDPPIV treatment (LC/MS) [8]: 195 Da | mass change after hDPPIV treatment (LC/MS) [9]: 1 Da | mass change after hDPPIV treatment (LC/MS) [10]: 2 Da | mass change after hDPPIV treatment (LC/MS) [11]: 0 Da | mass change after hDPPIV treatment (LC/MS) [12]: 1 Da | mass change after hDPPIV treatment (LC/MS) [13]: 0 Da | mass change after hDPPIV treatment (LC/MS) [14]: 0 Da | mass change after hDPPIV treatment (LC/MS) [15]: 0 Da | mass change after hDPPIV treatment (LC/MS) [16]: 0 Da | mass change after hDPPIV treatment (LC/MS) [17]: 0 Da | mass change after hDPPIV treatment (LC/MS) [18]: -1 Da | mass change after hDPPIV treatment (LC/MS) [19]: 0 Da | mass change after hDPPIV treatment (LC/MS) [20]: 0 Da | mass change after hDPPIV treatment (LC/MS) [21]: 1 Da | mass change after hDPPIV treatment (LC/MS) [22]: 171 Da | mass change after hDPPIV treatment (LC/MS) [23]: 0 Da | mass change after hDPPIV treatment (LC/MS) [24]: 0 Da | mass change after hDPPIV treatment (LC/MS) [25]: 0 Da | mass change after hDPPIV treatment (LC/MS) [26]: -2 Da | mass change after hDPPIV treatment (LC/MS) [27]: -1 Da | mass change after hDPPIV treatment (LC/MS) [28]: 1 Da
